In the Human Domainome abundance scans (Beltran et al. 2025) one finds abundance fitness data, which are given here for 66 variants.

± gives the uncertainty stated by the source.

To fix the notation:
B1: Chromodomain-helicase-DNA-binding protein 4, residues 365 to 417; numbered along this chain, Q14839 (parent)
chain: YETDHQDYCEVCQQGGEIILCDTCPRAYHMVCLDPDMEKAPEGKWSCPHCEKE

This data set covers variants of B1. In words: abundance fitness (aPCA) (normalised: wild type 0, dead -1); higher = more abundant; growth selection in yeast, the domain comes from the species named. The settings on record: Homo sapiens.
With G43H, the abundance fitness is -0.505 ± 0.26.

Regarding Y28L, the abundance fitness was -0.073 ± 0.098.

As to I19E, the abundance fitness is -0.07 ± 0.13.

For the variant D36Y, the abundance fitness is -0.657 ± 0.23.

I18A: the abundance fitness was -0.123 ± 0.12.

With T23L, the abundance fitness was -0.107 ± 0.12.

For T23P, the abundance fitness was -0.922 ± 0.23.

Take C21A: the abundance fitness is -0.882 ± 0.14.

For the variant C21P, the abundance fitness was -1.11 ± 0.24.

With C9S, the abundance fitness was -0.676 ± 0.099.

C24Y: the abundance fitness was -1.31 ± 0.25.

With D4C, the abundance fitness was found to be 0.071 ± 0.1.

Take Q13K: the abundance fitness is -0.474 ± 0.18.

Regarding Q13P, the abundance fitness is -0.702 ± 0.17.

For the variant Q13C, the abundance fitness is -0.045 ± 0.14.

K52P: the abundance fitness is -0.072 ± 0.16.

For the variant Y8F, the abundance fitness amounted to 0.471 ± 0.29.

With Y8N, the abundance fitness was -0.13 ± 0.28.

Regarding C47E, the abundance fitness is -0.331 ± 0.14.

For the variant A27I, the abundance fitness was -0.421 ± 0.14.

Consider G15T, for which the abundance fitness is -0.003 ± 0.14.

Turning to G15P, the abundance fitness was -0.136 ± 0.23.

As for G15Q, the abundance fitness is -0.046 ± 0.17.

For C12Y, the abundance fitness is -1.07 ± 0.15.

As for C12A, the abundance fitness was -0.952 ± 0.13.

In the case of L33E, the abundance fitness is -0.496 ± 0.12.

For the variant L20H, the abundance fitness was 0.143 ± 0.17.

Regarding P35T, the abundance fitness is 0.054 ± 0.14.

Turning to P35H, the abundance fitness is -0.001 ± 0.33.

P41T: the abundance fitness is -0.105 ± 0.16.

For P41R, the abundance fitness came out at 0.123 ± 0.094.

As to W45Y, the abundance fitness is -0.207 ± 0.18.

Regarding W45T, the abundance fitness stood at 0.085 ± 0.16.

With M37F, the abundance fitness turned out to be 0.24 ± 0.15.

Take M30S: the abundance fitness was -0.228 ± 0.1.

Turning to M30V, the abundance fitness is -0.137 ± 0.099.

With E17G, the abundance fitness is -0.171 ± 0.1.

As for E17A, the abundance fitness is -0.149 ± 0.12.

With E17V, the abundance fitness was -0.076 ± 0.11.

Take E17L: the abundance fitness was -0.322 ± 0.085.

Take E17W: the abundance fitness is -0.412 ± 0.12.

With Q14A, the abundance fitness is -0.307 ± 0.17.

Take Q14P: the abundance fitness is -0.826 ± 0.19.

For Q14F, the abundance fitness came to 0.06 ± 0.14.

As for Q14H, the abundance fitness was -0.23 ± 0.26.

For the variant V11M, the abundance fitness turned out to be 0.223 ± 0.15.

Regarding V11P, the abundance fitness was -0.257 ± 0.15.

As to V11T, the abundance fitness was found to be 0.195 ± 0.13.

In the case of D7N, the abundance fitness is -0.183 ± 0.11.

As for D7E, the abundance fitness was 0.015 ± 0.11.

K39C: the abundance fitness is -0.347 ± 0.12.

Regarding K39G, the abundance fitness amounted to 0.008 ± 0.096.

Regarding K39F, the abundance fitness was -0.472 ± 0.15.

Consider K39S, for which the abundance fitness was -0.203 ± 0.1.

Turning to K44A, the abundance fitness is -0.017 ± 0.15.

For the variant K44Q, the abundance fitness was 0.309 ± 0.13.

With Y1A, the abundance fitness turned out to be 0.534 ± 0.26.

Take H49T: the abundance fitness is -0.16 ± 0.14.

Take H49Q: the abundance fitness is -0.141 ± 0.2.

For the variant G16V, the abundance fitness was -0.341 ± 0.1.

As to S46G, the abundance fitness was -0.23 ± 0.086.

Turning to S46F, the abundance fitness is 0.125 ± 0.15.

Consider S46W, for which the abundance fitness came to 0.014 ± 0.12.

As to S46R, the abundance fitness was -0.137 ± 0.092.

Q6C: the abundance fitness is -0.212 ± 0.12.

C50R: the abundance fitness is -0.555 ± 0.098.
